# Results published in patent US12459996B2, “Methods for treating alcohol-induced brain injury and reducing alcohol addiction” (The Regents of the University of California, priority 2017, dated 2025).
# Tested on: cultured GFAP+F4/80- astrocytes
# Experiment: IL-1β stimulation of cultured astrocytes, gene expression microarray
# Assay type: cell-based, mouse
# Conditions: 5 ng/ml, 24 h
# Experimental: Whole mouse genome gene expression via Microarray: Primary astrocytes (5×10^5) were stimulated with IL-1β (5 ng/ml), TGF-β1(5 ng/ml) or vehicle for 24 h, harvested, and mRNA was purified using RNAeasy™ columns (Qiagen); and 160 ng of purified RNA per sample was labeled using the LRILAK PLUS™, 2-color, low RNA input Linear Amplification kit and hybridized to a Whole Mouse Genome Microarray 4×44 K™ 60mer slide according to the manufacturer's instructions (Agilent, Santa Clara, CA). Slides were scanned using the Agilent GZ505B Scanner™ and analyzed using the Gene Spring Software™ (Agilent).
# To determine the effect of microglia-derived cytokines on astrogliosis 21,22, cultured GFAP^+F4/80-astrocytes were in vitro stimulated with TGF-β1 or IL-β. […] In addition, cultured astrocytes expressed glutamate receptors (mGluRs) that mediate neuron-astrocyte signaling (FIG. 14D). Under pathological conditions, neurodegeneration triggers expansion of reactive astrocytes, upregulation of TGF-β 1, and mGuRs, which together generate neuroprotective effects^24.
# FIG. 14A: Primary GFAP^+F4/80^− astrocytes and GFAP^−F4/80^+ microglial cells were isolated from Wt mice, and phenotyped by immunocytochemistry. Cell purity was calculated as percent of total cells (representative images ×20 objective). […] The data are average of (triplicates). FIG. 14B-C: Cultured astrocytes (5×10^5 cells per ml) were stimulated with TGF-β1 (5 ng/ml), or IL-1β (5 ng/ml), or PBS, and subjected to the customized gene expression microarray (Agilent. FIG. 14B: GO enrichment profile for IL-1β- and FIG. 14C: TGF-β- (vs PBS-) stimulated astrocytes is shown.
substance,measurement,value
IL-β1: IL-1β cytokine (5 ng/ml) used to stimulate cultured astrocytes,"CCL2, fold induction vs vehicle",200 fold
same,"CCL5, fold induction vs vehicle",13 fold
same,"CCL7, fold induction vs vehicle",400 fold
same,"Cxcl1, fold induction vs vehicle",14 fold
same,"IL-6, fold induction vs vehicle",20 fold
